From CN106749661A (UNIV BEIJING, dated 2017)

Key:
PSMP蛋白 [1] = target: T1, PSMP蛋白 (human, UniProt Q1L6U9 36-139, limits assumed); assay: cytometric bead array, rabbit polyclonal on beads, 3D5 at 5 μg/ml as detection antibody
T1 sequence (looked up): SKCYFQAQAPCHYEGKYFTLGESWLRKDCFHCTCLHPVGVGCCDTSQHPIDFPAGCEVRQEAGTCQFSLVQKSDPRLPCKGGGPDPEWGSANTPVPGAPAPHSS

PSMP真核蛋白 = target: T2, PSMP真核蛋白 (human, UniProt Q1L6U9 36-139); assay: ELISA
T2 construct: mature; Eukaryotically expressed secreted PSMP; The expression construct and any tags are not described; also called 重组PSMP真核蛋白; PSMP分泌蛋白
T2 sequence (looked up): T1 sequence (looked up)

PC3细胞内源性PSMP蛋白 = target: T3, PC3细胞内源性PSMP蛋白 (human, UniProt Q1L6U9 36-139, limits assumed); assay: Western blot of PC3 cells
T3 construct: Detected by Western blot and by immunocytochemistry in PC3 cells
T3 sequence (looked up): T1 sequence (looked up)

PSMP蛋白 [2] = target: T1, PSMP蛋白; assay: ELISA with 293T expression supernatant

B1: 抗PSMP的单克隆抗体3D5 (antibody, V domains shown)
VH: EVQLQQSGPELVKPGASVKISCKASGYSFTGYFMNWVMQSHGKSLEWIGRINPYNGDTFYNQKFKGKATLTVDKSSSTAHMELRSLASEDSAVYYCARGGDGYYAFAYWGQGTLVTVSA
VL: NIVMTQSPKSMSMSVGERVTLSCRASENVGTYVSWYQQKPEQSPKLLIYGASNRYTGVPDRFTGSGSATDFTLTISSVQAEDLADYHCGQSYSYMYTFGGGTKLEIKR
notes: Mouse hybridoma antibody, heavy chain IgG1, light chain kappa, purified from ascites on Protein G Sepharose; also called 鼠单抗3D5; 3D5中和抗体
- binding result (PSMP蛋白 [1]): binds
- binding result (PSMP真核蛋白): binds
- binding result (PC3细胞内源性PSMP蛋白): binds

B2: 共转染含有3D5重链和轻链基因的质粒的293T上清中表达的抗体 (antibody, V domains shown)
VH: B1 VH
VL: B1 VL
notes: It was tested as culture supernatant
- binding result (PSMP蛋白 [2]): binds
